Assay results reported in paper PMC12401477 (Cell reports, 2025).

How the values were obtained:
[1] = biological target: the molecule itself; experiment: mass photometry
[2] = biological target: the molecule itself; experiment: mass photometry; remark: listed apart in the source

B1: N-terminally extended IRF7 isoform (exIRF7, intron 1 retained) with C-terminal 3xFLAG tag (natural protein, human, UniProt Q92985-4 1-516, looked up)
chain: MPVPERPAAGPDSPRPGTRRAAPRVLFGEWLLGEISSGCYEGLQWLDEARTCFRVPWKHFARKDLSEADARIFKAWAVARGRWPPSSRGGGPPPEAETAERAGWKTNFRCALRSTRRFVMLRDNSGDPADPHKVYALSRELCWREGPGTDQTEAEAPAAVPPPQGGPPGPFLAHTHAGLQAPGPLPAPAGDKGDLLLQAVQQSCLADHLLTASWGADPVPTKAPGEGQEGLPLTGACAGGPGLPAGELYGWAVETTPSPGPQPAALTTGEAAAPESPHQAEPYLSPSPSACTAVQEPSPGALDVTIMYKGRTVLQKVVGHPSCTFLYGPPDPAVRATDPQQVAFPSPAELPDQKQLRYTEELLRHVAPGLHLELRGPQLWARRMGKCKVYWEVGGPPGSASPSTPACLLPRNCDTPIFDFRVFFQELVEFRARQRRGSPRYTIYLGFGQDLSAGRPKEKSLVLVKLEPWLCRVHLEGTQREGVSSLDSSSLSLCLSSANSLYDDIECFLMELEQPA
modifications: phosphorylated (sites not given)
B1 was tested, and the “fold tighter Kd of dimerization than cIRF7” value [1] was roughly 6 fold and the “stoichiometry N” value [2] was 2.
